Results taken from the supplement of paper PMC10567573.

B1: INTS4 (parent)
chain: IRLVDDAFGKICHMVSDGSWVVRV
B2: CLPTM1 (parent)
chain: MNLHVYISEHEHFTDFNATSALFW

Variants of: B1
Assay: protein stability index of a GFP-peptide fusion (GPS, HEK-293T) (PSI 1-6); higher = more stable
Conditions: c terminus: a fixed tail appended
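Note: lentivirally expressed fusions sorted by FACS into six bins by GFP to DsRed ratio, PSI derived from sequencing read proportions per bin multiplied by bin number.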

| Variant | protein stability index |
| --- | --- |
| IRLVDDAFGKICHMVSDGSWVWRV | 2.35 |
| IRLVDDAFGKICHMVSDGSWVIRV | 3.27 |
| IRLVDDAFGKICHMVSDGSWVDRV | 3.6 |
| IRLVDDAFGKICHMVSDGSWVYRV | 4.15 |
| IRLVDDAFGKICHMVSDGSWVLRV | 2.82 |
| IRLVDDAFGKICHMVSDGSWVCRV | 3.31 |
| IRLVDDAFGKICHMVSDGSWVERV | 2.56 |
| IRLVDDAFGKICHMVSDGSWVRRV | 3.28 |
| IRLVDDAFGKICHMVSDGSWVKRV | 3.02 |
| IRLVDDAFGKICHMVSDGSWVTRV | 4.7 |
| IRLVDDAFGKICHMVSDGSWVHRV | 2.78 |
| IRLVDDAFGKICHMVSDGSWVFRV | 3.53 |
| IRLVDDAFGKICHMVSDGSVVVRV | 3.08 |
| IRLVDDAFGKICHMVSDGSKVVRV | 1.36 |
| IRLVDDAFGKICHMVSDGSQVVRV | 3.26 |
| IRLVDDAFGKICHMVSDGSIVVRV | 2.89 |
| IRLVDDAFGKICHMVSDGSRVVRV | 2.79 |
| IRLVDDAFGKICHMVSDGSLVVRV | 2.83 |
| IRLVDDAFGKICHMVSDGSFVVRV | 2.47 |
| IRLVDDAFGKICHMVSDGSEVVRV | 1.64 |
| IRLVDDAFGKICHMVSDGSAVVRV | 3.43 |
| IRLVDDAFGKICHMVSDGSYVVRV | 2.87 |
| IRLVDDAFGKICHMVSDGSDVVRV | 1.61 |
| IRLVDDAFGKICHMVSDGSHVVRV | 3.71 |
| IRLVDDAFGKICHMVSDGSGVVRV | 1.7 |

| Variant | protein stability index |
| --- | --- |
| IRLVDDAFGKICHMVSEGSWVVRV | 2.35 |
| IRLVDDAFGKICHMVSSGSWVVRV | 3.98 |
| IRLVDDAFGKICHMVSQGSWVVRV | 3.32 |
| IRLVDDAFGKICHMVSAGSWVVRV | 3.62 |
| IRLVDDAFGKICHMVSPGSWVVRV | 2.05 |
| IRLVDDAFGKICHMVSNGSWVVRV | 2.41 |
| IRLVDDAFGKICHMVSGGSWVVRV | 2.05 |
| IRLVDDAFGKICHMVSVGSWVVRV | 3.15 |
| IRLVDDAFGKICHMVSLGSWVVRV | 2.79 |
| IRLVDDAFGKICHMVSFGSWVVRV | 1.24 |
| IRLVDDAFGKICHMVSCGSWVVRV | 2.15 |
| IRLVDDAFGKICHMVSHGSWVVRV | 3.91 |
| IRLVDDAFGKICHMVSWGSWVVRV | 2.22 |
| IRLVDDAFGKICHMVSKGSWVVRV | 1.48 |
| IRLVDDAFGKICHMVSMGSWVVRV | 1.92 |
| IRLVDDAFGKICHMVSRGSWVVRV | 2.02 |
| IRLVDDAFGKICHMVSDSSWVVRV | 1.88 |
| IRLVDDAFGKICHMVSDDSWVVRV | 3.61 |
| IRLVDDAFGKICHMVSDYSWVVRV | 1.62 |
| IRLVDDAFGKICHMVSDRSWVVRV | 2.9 |
| IRLVDDAFGKICHMVSDISWVVRV | 3.15 |
| IRLVDDAFGKICHMVSDNSWVVRV | 2.01 |
| IRLVDDAFGKICHMVSDMSWVVRV | 1.8 |
| IRLVDDAFGKICHMVSDTSWVVRV | 1.95 |
| IRLVDDAFGKICHMVSDPSWVVRV | 4.4 |

| Variant | protein stability index |
| --- | --- |
| IRLVDDAFGKICHMVSDKSWVVRV | 3.25 |
| IRLVDDAFGKICHMVSDESWVVRV | 2.57 |
| IRLVDDAFGKICHMVSDFSWVVRV | 2.29 |
| IRLVDDAFGKICHMVSDGPWVVRV | 3.43 |
| IRLVDDAFGKICHMVSDGLWVVRV | 2.95 |
| IRLVDDAFGKICHMVSDGCWVVRV | 1.73 |
| IRLVDDAFGKICHMVSDGMWVVRV | 2.38 |
| IRLVDDAFGKICHMVSDGHWVVRV | 3.8 |
| IRLVDDAFGKICHMVSDGWWVVRV | 1.01 |
| IRLVDDAFGKICHMVSDGQWVVRV | 3.45 |
| IRLVDDAFGKICHMVSDGIWVVRV | 3.87 |
| IRLVDDAFGKICHMVSDGAWVVRV | 2.89 |
| IRLVDDAFGKICHMVSDGFWVVRV | 2.73 |
| IRLVDDAFGKICHMVSDGKWVVRV | 2.25 |
| IRLVDDAFGKICHMVSDGTWVVRV | 3.28 |
| IRLVDDAFGKICHMVSDGVWVVRV | 3.96 |
| IRLVDDAFGKICHMVSDGDWVVRV | 3.41 |
| IRLVDDAFGKICHMVSDGGWVVRV | 1.58 |
| IRLVDDAFGKIDHMVSDGSWVVRV | 3.58 |
| IRLVDDAFGKIPHMVSDGSWVVRV | 3.97 |
| IRLVDDAFGKIHHMVSDGSWVVRV | 2.35 |
| IRLVDDAFGKIGHMVSDGSWVVRV | 5.66 |
| IRLVDDAFGKIFHMVSDGSWVVRV | 1.73 |
| IRLVDDAFGKIQHMVSDGSWVVRV | 2.82 |
| IRLVDDAFGKINHMVSDGSWVVRV | 2.44 |

| Variant | protein stability index |
| --- | --- |
| IRLVDDAFGKIWHMVSDGSWVVRV | 3 |
| IRLVDDAFGKITHMVSDGSWVVRV | 2.91 |
| IRLVDDAFGKIAHMVSDGSWVVRV | 3.65 |
| IRLVDDAFGKIKHMVSDGSWVVRV | 4.92 |
| IRLVDDAFGKIRHMVSDGSWVVRV | 4.2 |
| IRLVDDAFGKICHMVSDGSWVVLV | 4.2 |
| IRLVDDAFGKICHMVSDGSWVVAV | 4.14 |
| IRLVDDAFGKICHMVSDGSWVVMV | 3.4 |
| IRLVDDAFGKICHMVSDGSWVVSV | 2.39 |
| IRLVDDAFGKICHMVSDGSWVVTV | 1.88 |
| IRLVDDAFGKICHMVSDGSWVVIV | 3.28 |
| IRLVDDAFGKICHMVSDGSWVVEV | 2.13 |
| IRLVDDAFGKICHMVSDGSWVVFV | 3 |
| IRLVDDAFGKICHMVSDGSWVVGV | 2.32 |
| IRLVDDAFGKICHMVSDGSWVVHV | 2.94 |
| IRLVDDAFGKICHMVSDGSWVVDV | 2.15 |
| IRLVDDAFGKICHMVSDGSWVVCV | 3.87 |
| IRLVDDAFGKICHMVSDGSWVVNV | 2.02 |
| IRLVDDAFGKICHMVMDGSWVVRV | 2.25 |
| IRLVDDAFGKICHMVFDGSWVVRV | 2.14 |
| IRLVDDAFGKICHMVCDGSWVVRV | 2.56 |
| IRLVDDAFGKICHMVEDGSWVVRV | 2.31 |
| IRLVDDAFGKICHMVRDGSWVVRV | 2.56 |
| IRLVDDAFGKICHMVDDGSWVVRV | 1.29 |
| IRLVDDAFGKICHMVVDGSWVVRV | 1.29 |

| Variant | protein stability index |
| --- | --- |
| IRLVDDAFGKICHMVWDGSWVVRV | 1.91 |
| IRLVDDAFGKICHMVQDGSWVVRV | 2.47 |
| IRLVDDAFGKICHMVNDGSWVVRV | 2.52 |
| IRLVDDAFGKICHMVIDGSWVVRV | 2.59 |
| IRLVDDAFGKICHMVLDGSWVVRV | 3.17 |
| IRLVDDAFGKHCHMVSDGSWVVRV | 3.47 |
| IRLVDDAFGKMCHMVSDGSWVVRV | 2.41 |
| IRLVDDAFGKSCHMVSDGSWVVRV | 2.87 |
| IRLVDDAFGKNCHMVSDGSWVVRV | 2.3 |
| IRLVDDAFGKVCHMVSDGSWVVRV | 3.14 |
| IRLVDDAFGKQCHMVSDGSWVVRV | 2.63 |
| IRLVDDAFGKYCHMVSDGSWVVRV | 3.31 |
| IRLVDDAFGKICHMVSDGSWVVRF | 3.03 |
| IRLVDDAFGKICHMVSDGSWVVRC | 2.68 |
| IRLVDDAFGKICHMVSDGSWVVRW | 1.57 |
| IRLVDDAFGKICHMVSDGSWVVRD | 1.47 |
| IRLVDDAFGKICHMVSDGSWVVRQ | 2.04 |
| IRLVDDAFGKICHMVSDGSWVVRI | 3.12 |
| IRLVDDAFGKICHMVSDGSWVVRH | 2.79 |
| IRLVDDAFGKICHMVSDGSWVVRR | 3.03 |
| IRLVDDAFGKICHMVSDGSWVVRY | 3.37 |
| IRLVDDAFGKICHMVSDGSWVVRM | 1.46 |
| IRLVDDAFGKICHMVSDGSWVVRK | 1.58 |
| IRLVDDAFGKICHMVSDGSWVVRT | 4 |
| IRLVDDAFGKICHMVSDGSWVVRS | 2.31 |

| Variant | protein stability index |
| --- | --- |
| IRLVDDAFGKICHMVSDGSWVVRN | 1.42 |
| IRLVDDAFGKICHMVSDGSWVVRP | 3.21 |
| IRLVDDAFGKICMMVSDGSWVVRV | 3.09 |
| IRLVDDAFGKICAMVSDGSWVVRV | 3.2 |
| IRLVDDAFGKICIMVSDGSWVVRV | 3.17 |
| IRLVDDAFGKICYMVSDGSWVVRV | 2.38 |
| IRLVDDAFGKICPMVSDGSWVVRV | 2.63 |
| IRLVDDAFGKICSMVSDGSWVVRV | 1.3 |
| IRLVDDAFGKICDMVSDGSWVVRV | 3.12 |
| IRLVDDAFGKICGMVSDGSWVVRV | 2.97 |
| IRLVDDAFGKICKMVSDGSWVVRV | 3.46 |
| IRLVDDAFGKICHPVSDGSWVVRV | 2.76 |
| IRLVDDAFGKICHFVSDGSWVVRV | 3.85 |
| IRLVDDAFGKICHVVSDGSWVVRV | 4.58 |
| IRLVDDAFGKICHQVSDGSWVVRV | 1.49 |
| IRLVDDAFGKICHRVSDGSWVVRV | 1.53 |
| IRLVDDAFGKICHIVSDGSWVVRV | 2.62 |
| IRLVDDAFGKICHDVSDGSWVVRV | 4.2 |
| IRLVDDAFGKICHNVSDGSWVVRV | 5.13 |
| IRLVDDAFGKICHAVSDGSWVVRV | 2.75 |
| IRLVDDAFGKICHHVSDGSWVVRV | 3.19 |
| IRLVDDAFGKICHTVSDGSWVVRV | 3.71 |
| IRLVDDAFGKICHYVSDGSWVVRV | 1.64 |
| IRLVDDAFGKICHSVSDGSWVVRV | 2.48 |
| IRLVDDAFGKICHMCSDGSWVVRV | 4.47 |

| Variant | protein stability index |
| --- | --- |
| IRLVDDAFGKICHMTSDGSWVVRV | 3.2 |
| IRLVDDAFGKICHMGSDGSWVVRV | 3.51 |
| IRLVDDAFGKICHMPSDGSWVVRV | 3.17 |
| IRLVDDAFGKICHMASDGSWVVRV | 3.99 |
| IRLVDDAFGKICHMKSDGSWVVRV | 2.06 |
| IRLVDDAFGKICHMDSDGSWVVRV | 2.06 |
| IRLVDDAFGKICHMQSDGSWVVRV | 3.06 |
| IRLVDDAFGKICHMISDGSWVVRV | 2.87 |
| IRLVDDAFGKICHMHSDGSWVVRV | 2.22 |
| IRLVDDAFGKICHMRSDGSWVVRV | 3.53 |
| IRLVDDAFGKICHMLSDGSWVVRV | 2.74 |
| IRLVDDAFGKICHMFSDGSWVVRV | 2.51 |
| IRLVDDAFGKICHMSSDGSWVVRV | 1.84 |
| IRLVDDAFGKICHMNSDGSWVVRV | 3.28 |
| IRLVDDAFGKICHMVSDGSWYVRV | 4.71 |
| IRLVDDAFGKICHMVSDGSWLVRV | 2.25 |
| IRLVDDAFGKICHMVSDGSWEVRV | 2 |
| IRLVDDAFGKICHMVSDGSWRVRV | 2.88 |
| IRLVDDAFGKICHMVSDGSWKVRV | 3.29 |
| IRLVDDAFGKICHMVSDGSWHVRV | 3.08 |
| IRLVDDAFGKICHMVSDGSWGVRV | 1.89 |
| IRLVDDAFGKICHMVSDGSWTVRV | 2.18 |
| IRLVDDAFGKICHMVSDGSWFVRV | 2.62 |
| IRLVDDAFGKICHMVSDGSWCVRV | 3.07 |
| IRLVDDAFGKICHMVSDGSWPVRV | 1.98 |

Variants of: B2
Assay: as above
Conditions: c terminus: a fixed tail appended

| Variant | protein stability index |
| --- | --- |
| FNLHVYISEHEHFTDFNATSALFW | 2.29 |
| TNLHVYISEHEHFTDFNATSALFW | 2.97 |
| NNLHVYISEHEHFTDFNATSALFW | 3.69 |
| ENLHVYISEHEHFTDFNATSALFW | 1.33 |
| GNLHVYISEHEHFTDFNATSALFW | 2.8 |
| KNLHVYISEHEHFTDFNATSALFW | 2.95 |
| VNLHVYISEHEHFTDFNATSALFW | 3.6 |
| DNLHVYISEHEHFTDFNATSALFW | 1.72 |
| RNLHVYISEHEHFTDFNATSALFW | 2.51 |
| QNLHVYISEHEHFTDFNATSALFW | 2.58 |
| PNLHVYISEHEHFTDFNATSALFW | 1.93 |
| SNLHVYISEHEHFTDFNATSALFW | 2.69 |
| INLHVYISEHEHFTDFNATSALFW | 3.18 |
